Measurements reported in publication PMC6172425, “Structural basis of inactivation of human counterpart of mouse motor neuron degeneration 2 mutant in serine protease HtrA2” (Bioscience Reports, 2018).

Biological target: the molecule itself
Experiment: SEC; Superdex S200 HR 10/300, 10 mM HEPES pH 8.0, 100 mM NaCl, protein ~20 mg/ml, 0.2 ml/min; calibrated with BSA, alcohol dehydrogenase, β-amylase

Row | Protein | binding result
1 | Recombinant mature (Δ133) human HtrA2 S276C (enzyme, UniProt O43464 134-458, looked up, human serine protease HtrA2, mature processed form (Δ133): the 458 amino acid precursor without its first 133 residues, with S276C; Made by site-directed mutagenesis of the wild-type construct in pET-20b; also called hHtrA2S276C; human counterpart of the mouse mnd2 mutant; source: E. coli Rosetta (DE3), purified (Ni-NTA, gel filtration)) AVPSPPPASPRSQYNFIADVVEKTAPAVVYIEILDRHPFLGREVPISNGSGFVVAADGLIVTNAHVVADRRRVRVRLLSGDTYEAVVTAVDPVADIATLRIQTKEPLPTLPLGRSADVRQGEFVVAMGSPFALQNTITSGIVCSAQRPARDLGLPQTNVEYIQTDAAIDFGNSGGPLVNLDGEVIGVNTMKVTAGISFAIPSDRLREFLHRGEKKNSSSGISGSQRRYIGVMMLTLSPSILAELQLREPSFPDVQHGVLIHKVILGSPAHRAGLRPGDVILAIGEQMVQNAEDVYEAVRTQSQLAVQIRRGRETLTLYVTPEVTE | binds
2 | Recombinant mature (Δ133) human HtrA2, wild type (enzyme, UniProt O43464 134-458, looked up, human serine protease HtrA2, mature processed form (Δ133): the 458 amino acid precursor without its first 133 residues, N-terminus AVPS; In pET-20b; PDB 1LCY is the S306A form of the mature protein; also called wt hHtrA2; hHtrA2; source: E. coli Rosetta (DE3), purified (Ni-NTA)) AVPSPPPASPRSQYNFIADVVEKTAPAVVYIEILDRHPFLGREVPISNGSGFVVAADGLIVTNAHVVADRRRVRVRLLSGDTYEAVVTAVDPVADIATLRIQTKEPLPTLPLGRSADVRQGEFVVAMGSPFALQNTITSGIVSSAQRPARDLGLPQTNVEYIQTDAAIDFGNSGGPLVNLDGEVIGVNTMKVTAGISFAIPSDRLREFLHRGEKKNSSSGISGSQRRYIGVMMLTLSPSILAELQLREPSFPDVQHGVLIHKVILGSPAHRAGLRPGDVILAIGEQMVQNAEDVYEAVRTQSQLAVQIRRGRETLTLYVTPEVTE | binds
